# Measurements published in the nanobody polyreactivity screen of Harvey et al. (2022).
# Assay: yeast display, Sf9 membrane polyspecificity reagent, FACS + sequencing; frameworks hold sequencing errors
# In short: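 Polyreactivity labels are assigned by the sorting gate from which each nanobody was recovered. The gates were low and high (top ~1%), set on anti-HA fluorescence for expression and streptavidin fluorescence for reagent binding. Before sorting, galactose-induced (36–48 hours) yeast display cells were stained for 1 hour at 4 °C with 10% biotinylated, detergent-solubilized Sf9 membrane reagent.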
row,Sequence,polyreactivity (PSR sort gate)
1,QVQLVESGGGLVQAGGSLRLSCAASGIIFESNVMGWYRQAPGKERELVAAISRSGSRTYYADSVKGRFTISRDNAKNTVYLQMNSLKPEDTAVYYCATDSHTADEYEHWGQGTQVTVSS,high polyreactivity
2,QVQLVESGGGLVQAGGSLRLSCSASERTFYWNTMGWYRQAPGKERELVAAIRTSGGSTYYADSVKGRFTISRDNAKNTVYLQMNSLKPEDTAVYYCAAKYRNYNTRYDYWGQGTQVTVSS,high polyreactivity
3,QVQLVESGGGLVQAGGSLRLSCAACGRTFWSYAMGWYLQAPGKERELVAAINSGGSTDYADSVKGRFTISRDNAKNTVYLQMNSLKPEDTAVYYCAADTWYGFDWGQGTQVTVSS,high polyreactivity
4,QVQLVESGGGLVQAGGSLRLSCAASGNIFGYYAMGWYRQAPGKERELVAAITTTGGSTYYADSVKGRFTISRDNAKNTVYLQMNSLKPEDTAVYYCAAETGYWYYYWGQGTQVTVSS,high polyreactivity
5,QVQLVESGGGLVQAGGSLRLSCAASGNTLYTNAMGWYRQAPGKERELVAVISRGGSTYYADSVKGRFTISRDNAKNTVYLQMNSLKPEDTAVYYCATYGSSWSRAYGYWGQGTQVTVSS,high polyreactivity
6,QVQLQESGGGLVQAGGGLRLSCAASGTISGPHVMGWYRQAPGKEREFVAAINVGANTYYADNVKGRFTISRDNAINTVYLQMNSLKPEDTAVYYCAAVYYGDIGHEYWGQGTQVTVSC,low polyreactivity
7,QVQLVESGGGLVQAGGSLRLSCAASGSIFYGNAMGWYRQAPGKERELVAAISARGGSTNYADSVKGRFTISRDNAKNTVYLQMNSLKPEDTAVYYCAADTPVWSGYWYDYWGQGTQVTVSS,low polyreactivity
8,QVQLVETGGGLVQAGGSLRLSCAASGLSFGRNAIGSYRQAPGKERELVAAISRSGGRTSYADSVKGRFTISRDTAKNTVYLQMNSLKPEDTAVYYCAARSDVYTHDYWGQATQVTVSS,high polyreactivity
9,QVQLVESGGGLVQAGGSLRLSCAASGRTFYRNTMGWYRQAPGKERELVAGISYSGGSTYYADSVKGRFTISRDNAKNTVYLQMNSLKPEDTAVYYCATVRRYGYGYDYWGQGTQVTVSS,high polyreactivity
10,QVQLVESGGGLVQAGGSLRLTCAASGFTFRRYAMGCYRKAPGKERLLVAAISYSGGITYYADSVKGRFTISRDNAKNTVYLHMNSLKAEDTAVYYCAADYFAPYKTYDYWGQGTQVTVSS,high polyreactivity
11,QVQLVESGGGLVQAGGSLRLSCAASGSIFYSYAMGWYRQAPGKERELVAAISSGGRTKYADSVKGRFTISRDNAKNTVYLQMNSLKPEDTAVYYCAASDRYGGRDYWGQGTQVTVSS,high polyreactivity
12,QVQLVESGGGLVKAGGSLRLSCAASGSTFHIYAMGWYRQAPGKERELVAAISKGGGNTYYADSVKGRFTISRDNAKNTVYLQMNSLKPEDTAVYYCAAVPTRYRSYTYTYGGYNYWGQGTQVTVSS,high polyreactivity
13,QVQLVESGGGLVQAGGSHRLSCAASGRTFYYNAMGVYRQAPGKERELVAGITRSGSSTYYADSVKGRFTISRVNAKNTVYLQMNSLKPEDTAVYYCATRRSGYYSFYYWGQGTQVTVSS,high polyreactivity
14,QVQLVESGGGLVQAGGSLRLSCAASGITFGYYAMGWYRQAPGKERELVAAIRSSGGSTYYADSVKGRFTISRDNAKNTVYLQMNSLKPEDTAVYYCNARYRKSSRPGYEPYERYYWGQGTQVTVSS,high polyreactivity
15,QVQLVESGGGLVQAGGSLRLSCAASGFTFRIYTMVWYRPAPRKERELVAAISSRGGSTYYADSVKGRFTISRDNAKNTVYLQMNSLKPEDTAVYYCAASGRVYSSGYDYWGQGTQVTVSS,high polyreactivity
16,QGQLVESGGGLVQAGGSLRLSCAASGGIFGNYAMGGYRQAPGKERELVAVIDSSDGSTHYADSVKGRFSISRDNAKTTVYLQINSLKAEDTAVYYCATLGFWNYWTFDYWGQGTQVTVSS,low polyreactivity

row,Sequence,polyreactivity (PSR sort gate)
1,QVQLVESGGGLVQAGGSLRLSCAASGRTLSANAMGWYRQAPGKERELVATNSTRGGRTYYADSVKGRFTISRDNAKNTVYLQMNSLKPEDTAVYYCAVTIRAKYTLKEDYWGQGTQVTVSS,low polyreactivity
2,QVQLVESGGGLFQAGGSLRLSCAASASIIPHNAMGWYRQAPGKERELVASITSRGGITYYADSVKGRFTISRDNAKNTVYLQMNSLKPEDTAVYYCAKDHAYTSAPHQYASEYYYWGQGTQVTVSS,low polyreactivity
3,QVQLVESGGGLVQAGGSLRLSCAASGRTFRYYAMGRSRQAPGTERELVAAISRSGGRTNYADSVKGRFTISRDNAKNTVYLQMNSLIPEDTAVDYCAADFRYTFDSWGQGTQVTVSS,high polyreactivity
4,QVQLVESGGGLVQAGGSLRLSCAASGRTFQDNAMVWYRQAPGKEREFVAAINNSGGNTYYADSVKGRFTISRDNAKNTVYLQMNSLKPEDTAVYYCNARHTWHQTYDYWGQGTQVTVSS,low polyreactivity
5,QVQLVESGVGIVQAGGSLRVSCAASGFTFYSYAKGWYRQAPGKERELVAAISYTGGSTYYADSVKGRFTISRDNAKNTVSLQMNSQKPEDSAVYYCAAKLWTRVTRMRRWVDYWGQGTQVSVSS,high polyreactivity
6,QVQLVESGGGLVQAGGSLRLSCAASGSIIDRYAMGWYRQAPGKERELVAAISRSGGSTYYADSVKGRFTISRDNAKNTVYLQMKSLKPEDTAFYYCAAGGDSGDDWGQGTQVTVSS,low polyreactivity
7,QVQLVESGGGLVQAGGSLRLSCAASGSIIRTYAMGWYRQAPGKERQLVATITFGGVSTYNADSVKGRFTISRDNAKNTVYLQMNSLKPEDSAVYYCAADVYTRFWRVYRFDYWGQGTQVTVSS,low polyreactivity
8,QVQLVESGGGLVQAGGSLRLSCAASGRTLSYYAMGWYRQAPGKEREFVAAINWSGGSTYYADSVKGRFTISRDNAKNTVYLQMNSLKPEDTAVYYCAAYRPYSSSEGDYWGQGTQVTVSS,high polyreactivity
9,QVQLVESGGGLVQAGGSLRLSCAASGSTFYTNAMGWYRPAPGKVRELVAAISSSGDSTYYADSVKGRFTISRDNAKNTVYLQMKSLKPDDTAVYYCNADLRSYNGFRYYYWGQGTKVTVSS,low polyreactivity
10,QVHLVESGGGLVQAGGSLRLSCAASGSISVANAMGWYRQAPGKERELVAAITDSGDDTYYADSVKGRFTISRDNAKNTVYLQMNSLKPEDTAVYYCAVEAWSVPPYDYWGQGTQVTVSS,low polyreactivity
11,QVQLVESGGGLVQAGGSLRLSCAASGSTFRGYDMGWYRQAPGKERELVAAITTSGGTTYYADSVKGRFTISRDNAKNTVYLQMNSLKPEDTAVYYCAARYPRAGVPRRPTAYVRYGYWGQGTQVTVSS,high polyreactivity
12,QVQLVVSGGGLVQAGGSLRLSCAASGITFYEYAMGWYRQAPGKERELVAAISSSGCTTYYADSVKGLFTISRDNAKNTVYLQLNSLKPEDTAVYYCAVGQRFAIWGPQGSYFYFESDYWGQGTQVTVSS,low polyreactivity
13,QVQLVESGGGLVQAGGSLRLSCPASGSTIPLYAMGWYRPAPGKERELVAAISRRGGRTYYADSVKGRFTISRDNAKNSVYLQMNSLKPEDTAVYYCATAQGSRVDYWGQGTQVTVSS,high polyreactivity
14,QVQLEESGGGLVQAGGSLRLSCAASGSIFSYYVMGWYRQAPGKERELVARNSKRGVTTYYADSVKGRFTISRDNAKNTVYLQMNSLKPEDTAVYFCAASVWRDRIYRYEYWGQGTQVTVSS,high polyreactivity
15,QVQIVESGGGLVQAGGSLRLSFAASGSTFVLYAMGWYRPAPGKERELVAAISGGATTTYADSVKGRFTISRDNAKNSVYLQMNSLKPEDTAVYYCAADFYTFVVSGAAMDYWGQGTQVTVSS,low polyreactivity
16,QVQLVESGGGLVQAGGSLRLSCAASGIIFRVYAMGWYRQAPGKERELFATITWSGGSTFYADSLKGRFTISRDNAKNTVYLQLNSLKPEDTAVYYCAKRGYVRSGLGRPYADDYWGQCTQVTVSS,low polyreactivity
